Km data for one protein are collected here from paper PMC8993221, “Agl24 is an ancient archaeal homolog of the eukaryotic N-glycan chitobiose synthesis enzymes” (eLife, 2022).

As a reminder, the Km is the substrate concentration at which the rate is half of its maximum.

Substrate in this data set: CC(=O)N[C@H]1[C@@H](OP(=O)(O)OP(=O)(O)OC[C@H]2O[C@@H](n3ccc(=O)[nH]c3=O)[C@H](O)[C@@H]2O)O[C@H](CO)[C@@H](O)[C@@H]1O
Description: purified protein. The following applies: 0.5 mM acceptor-2 (phenyl-O-C11H22-PP-GlcNAc), TBS with 5 mM MgCl2, pH 7.5, 60 °C, 10 hr, UDP-GlcNAc 0.5-12 mM. The class given is biochemical, Sulfolobus acidocaldarius.

B1: Agl24 (Saci1262) (Sulfolobus acidocaldarius DSM 639) (protein)
chain: MIDNPLLIIASGGGHTGFARAIAEYLPFKPDFVIPENDRFSKDMLLDYARKLYYVKKGKDPGQGNIVLMRNFLKIIIESGKIPKYLATIATGSNHSLIPAMFQKIKGSALYVTESQDRIITRGKTVSVLSKFSRHVFLHWNEQKGLYDNGVVVGPIVEKPKYKSENKGYILVTTGSMGFKKLFDSLLNLRGNYKFVIQTGKVDPTPYIEKKPDWSFFSFDKDIERYIANAELVITHQGKTAMESVVMYGKPTIIVYNKDWKSATTKQDTILYSKILGATFLDDPSTWDSIKVLEDSIQNVRKPNQFEIGTPKLIDIILSELAEFLRE
notes: full length (327 residues), C-terminal TEV site-GFP-His8 fusion (pWaldo, plasmid pHD0499), tags kept; E. coli BL21 membranes, DDM-solubilised, Ni purified
Regarding B1, the Km worked out at 1370 ± 130 µM.
